Consider 25 sequences from the supplement of paper PMC9233669.

Fewer inactive variants are shown than the library holds.

One data set concerns biotinyl-Phe-oxazolone. Kind of data set: self-aminoacylation, catalytic enhancement (BFO) (fold over background); higher = more active; k-Seq, kA / k0A0; sequences stand for … in GGGAAUGGAUCCACAUCUACGAAUUC…UUCACUGCAGACUUGACGAAGCUG
The essentials:
(§1)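 Mutagenized RNA pools (0.43 μM; 21-nt variable region) were treated with 2–1250 μM of each biotinyl-aminoacyl-oxazolone. Conditions were 50 μL HEPES/NaCl/KCl/MgCl2/CaCl2 buffer, 5% acetonitrile, pH 6.9–7.0, room temperature, 90 minutes. Catalytic enhancement, the median kA relative to the uncatalyzed rate, was derived from streptavidin capture, qPCR and Illumina sequencing.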

The test system of another data set is biotinyl-Leu-oxazolone. Kind of data set: self-aminoacylation, catalytic enhancement (BLO) (fold over background); higher = more active; k-Seq, kA / k0A0; sequences stand for … in GGGAAUGGAUCCACAUCUACGAAUUC…UUCACUGCAGACUUGACGAAGCUG
The essentials: as §1

Another data set relates to biotinyl-Trp-oxazolone. Kind of data set: self-aminoacylation, catalytic enhancement (BWO) (fold over background); higher = more active; k-Seq, kA / k0A0; sequences stand for … in GGGAAUGGAUCCACAUCUACGAAUUC…UUCACUGCAGACUUGACGAAGCUG
A digest of the protocol:
as §1

In the next data set the test system is biotinyl-Val-oxazolone. Kind of data set: self-aminoacylation, catalytic enhancement (BVO) (fold over background); higher = more active; k-Seq, kA / k0A0; sequences stand for … in GGGAAUGGAUCCACAUCUACGAAUUC…UUCACUGCAGACUUGACGAAGCUG
A digest of the protocol:
as §1

The next data set concerns biotinyl-Met-oxazolone. Kind of data set: self-aminoacylation, catalytic enhancement (BMO) (fold over background); higher = more active; k-Seq, kA / k0A0; sequences stand for … in GGGAAUGGAUCCACAUCUACGAAUUC…UUCACUGCAGACUUGACGAAGCUG
A digest of the protocol:
as §1

The next data set concerns biotinyl-Ile-oxazolone. Briefly: self-aminoacylation, catalytic enhancement (BIO) (fold over background); higher = more active; k-Seq, kA / k0A0; sequences stand for … in GGGAAUGGAUCCACAUCUACGAAUUC…UUCACUGCAGACUUGACGAAGCUG
The essentials: as §1

With “AUUACGCUGGCCAUCGAGUGA [Fam2.1 aminoacylation ribozyme variant]”, the self-aminoacylation with biotinyl-Phe-oxazolone came to 32.4; in the data set with biotinyl-Leu-oxazolone it was 5.89; in the data set on biotinyl-Trp-oxazolone, 8.46; in the data set with biotinyl-Val-oxazolone it was 4.76; in the data set with biotinyl-Met-oxazolone, 6.9; in the data set on biotinyl-Ile-oxazolone, 4.5.
With “AUUACGCUGGUCAUAGAGUGA [Fam2.1 aminoacylation ribozyme variant]”, the self-aminoacylation in the data set on biotinyl-Phe-oxazolone came to 7.49; in the data set on biotinyl-Leu-oxazolone, 3.54; in the data set with biotinyl-Trp-oxazolone, 4.14; with biotinyl-Val-oxazolone, 2.23; with biotinyl-Met-oxazolone, 3.31; in the data set on biotinyl-Ile-oxazolone it was 2.33.
With “AUUACGCUGGUCAUCCAGUGA [Fam2.1 aminoacylation ribozyme variant]”, the self-aminoacylation was determined as 12.8 in the data set on biotinyl-Phe-oxazolone; 3.99 in the data set on biotinyl-Leu-oxazolone; 4.31 with biotinyl-Trp-oxazolone; 1.96 in the data set with biotinyl-Val-oxazolone; 3.63 in the data set on biotinyl-Met-oxazolone; 2.27 with biotinyl-Ile-oxazolone.
On to “AUUACGCUGGUCAUCGAGUAA [Fam2.1 aminoacylation ribozyme variant]”, for which the self-aminoacylation in the data set on biotinyl-Phe-oxazolone came out at 0.975; in the data set on biotinyl-Leu-oxazolone, 1.26; in the data set with biotinyl-Trp-oxazolone it was 1.8; in the data set on biotinyl-Val-oxazolone it was 1.53; with biotinyl-Met-oxazolone it was 1.43; in the data set on biotinyl-Ile-oxazolone, 1.6.
In the case of “AUUACGCUGGUCAUCGAGUGC [Fam2.1 aminoacylation ribozyme variant]”, the self-aminoacylation stood at 1.4 with biotinyl-Phe-oxazolone; 1.31 in the data set with biotinyl-Leu-oxazolone; 1.24 in the data set with biotinyl-Trp-oxazolone; 1.33 with biotinyl-Val-oxazolone; 1.44 in the data set with biotinyl-Met-oxazolone; 1.02 in the data set with biotinyl-Ile-oxazolone.
“AUUACGCUGGUCAUCGGGUGA [Fam2.1 aminoacylation ribozyme variant]”: the self-aminoacylation with biotinyl-Phe-oxazolone was found to be 60.9; in the data set with biotinyl-Leu-oxazolone it was 7.84; in the data set with biotinyl-Trp-oxazolone it was 9.36; in the data set with biotinyl-Val-oxazolone, 7.46; in the data set with biotinyl-Met-oxazolone, 8.98; in the data set with biotinyl-Ile-oxazolone, 6.21.
Take “AUUACGCUGUUCAUCGAGUGA [Fam2.1 aminoacylation ribozyme variant]”: the self-aminoacylation in the data set with biotinyl-Phe-oxazolone was 4.19; in the data set on biotinyl-Leu-oxazolone, 3.57; in the data set on biotinyl-Trp-oxazolone, 4.58; in the data set with biotinyl-Val-oxazolone, 2.71; with biotinyl-Met-oxazolone, 3.87; in the data set on biotinyl-Ile-oxazolone, 2.4.
“AUUACUCCGGUCAUCGAGUGA [Fam2.1 aminoacylation ribozyme variant]”: the self-aminoacylation with biotinyl-Phe-oxazolone was 16; with biotinyl-Leu-oxazolone it was 5.43; with biotinyl-Trp-oxazolone, 5.76; with biotinyl-Val-oxazolone it was 2.64; in the data set on biotinyl-Met-oxazolone it was 5.22; with biotinyl-Ile-oxazolone, 2.81.
As for “AUUACUCUGGUCAGCGAGUGA [Fam2.1 aminoacylation ribozyme variant]”, the self-aminoacylation was 17.6 in the data set with biotinyl-Phe-oxazolone; 5.83 in the data set on biotinyl-Leu-oxazolone; 5.85 in the data set on biotinyl-Trp-oxazolone; 3.13 with biotinyl-Val-oxazolone; 5.21 in the data set on biotinyl-Met-oxazolone; 3.29 in the data set on biotinyl-Ile-oxazolone.
Take “AUUACUCUGGUCAUCCAGUGA [Fam2.1 aminoacylation ribozyme variant]”: the self-aminoacylation in the data set with biotinyl-Phe-oxazolone was determined as 17.3; with biotinyl-Leu-oxazolone it was 5.29; with biotinyl-Trp-oxazolone it was 6.01; with biotinyl-Val-oxazolone, 2.74; in the data set on biotinyl-Met-oxazolone, 5.01; with biotinyl-Ile-oxazolone it was 3.2.
For the sequence “AUUACUCUGGUCAUUGAGUGA [Fam2.1 aminoacylation ribozyme variant]”, the self-aminoacylation was found to be 32.7 in the data set with biotinyl-Phe-oxazolone; 8.45 in the data set on biotinyl-Leu-oxazolone; 9.3 with biotinyl-Trp-oxazolone; 3.61 in the data set with biotinyl-Val-oxazolone; 7.88 in the data set on biotinyl-Met-oxazolone; 4.15 in the data set with biotinyl-Ile-oxazolone.
With “AUUACUGUGGUCAUCGAGUGA [Fam2.1 aminoacylation ribozyme variant]”, the self-aminoacylation was 14.1 with biotinyl-Phe-oxazolone; 4.25 in the data set on biotinyl-Leu-oxazolone; 5.16 with biotinyl-Trp-oxazolone; 2.56 with biotinyl-Val-oxazolone; 4.65 in the data set with biotinyl-Met-oxazolone; 2.65 in the data set on biotinyl-Ile-oxazolone.
“AUUAGACUGGUCAUCGAGUGA [Fam2.1 aminoacylation ribozyme variant]”: the self-aminoacylation is 7.88 in the data set with biotinyl-Phe-oxazolone; 3.73 with biotinyl-Leu-oxazolone; 4.81 with biotinyl-Trp-oxazolone; 2.56 with biotinyl-Val-oxazolone; 4.4 in the data set with biotinyl-Met-oxazolone; 3 with biotinyl-Ile-oxazolone.
As to “AUUAGCCUGAUCAUCGAGUGA [Fam2.1 aminoacylation ribozyme variant]”, the self-aminoacylation in the data set on biotinyl-Phe-oxazolone was determined as 46.7; with biotinyl-Leu-oxazolone, 10.6; in the data set with biotinyl-Trp-oxazolone, 11; in the data set with biotinyl-Val-oxazolone, 4.4; in the data set on biotinyl-Met-oxazolone it was 10.4; with biotinyl-Ile-oxazolone it was 4.82.
For the sequence “AUUAGCCUGGUCAUCGAGUGA [Fam2.1 aminoacylation ribozyme variant]”, the self-aminoacylation amounted to 21.7 in the data set on biotinyl-Phe-oxazolone; 7.65 in the data set with biotinyl-Leu-oxazolone; 9.2 in the data set with biotinyl-Trp-oxazolone; 4.55 with biotinyl-Val-oxazolone; 7.22 in the data set with biotinyl-Met-oxazolone; 4.61 in the data set with biotinyl-Ile-oxazolone.
Take “AUUAGCCUGGUCAUCGAGUGU [Fam2.1 aminoacylation ribozyme variant]”: the self-aminoacylation turned out to be 3.87 in the data set on biotinyl-Phe-oxazolone; 4.18 in the data set on biotinyl-Leu-oxazolone; 5.12 in the data set with biotinyl-Trp-oxazolone; 3.14 with biotinyl-Val-oxazolone; 4.71 in the data set with biotinyl-Met-oxazolone; 2.76 in the data set with biotinyl-Ile-oxazolone.
For the sequence “AUUAGCCUUGUCAUCGAGUGA [Fam2.1 aminoacylation ribozyme variant]”, the self-aminoacylation with biotinyl-Phe-oxazolone worked out at 6.72; with biotinyl-Leu-oxazolone, 3.97; with biotinyl-Trp-oxazolone, 4.07; with biotinyl-Val-oxazolone, 2.76; with biotinyl-Met-oxazolone, 3.73; with biotinyl-Ile-oxazolone it was 2.85.
Turning to “AUUAUCCGGGUCAUCGAGUGA [Fam2.1 aminoacylation ribozyme variant]”, the self-aminoacylation was 45.7 in the data set on biotinyl-Phe-oxazolone; 8.08 in the data set on biotinyl-Leu-oxazolone; 8.13 in the data set on biotinyl-Trp-oxazolone; 4.04 in the data set with biotinyl-Val-oxazolone; 8.26 with biotinyl-Met-oxazolone; 4.14 in the data set with biotinyl-Ile-oxazolone.
Regarding “AUUAUCCUGGUCAACGAGUGA [Fam2.1 aminoacylation ribozyme variant]”, the self-aminoacylation in the data set on biotinyl-Phe-oxazolone turned out to be 30.1; with biotinyl-Leu-oxazolone, 8.02; with biotinyl-Trp-oxazolone, 7.67; in the data set on biotinyl-Val-oxazolone, 3.87; with biotinyl-Met-oxazolone it was 6.62; in the data set with biotinyl-Ile-oxazolone, 3.69.
For the sequence “AUUAUCCUGGUCAGCGAGUGA [Fam2.1 aminoacylation ribozyme variant]”, the self-aminoacylation was found to be 17.7 with biotinyl-Phe-oxazolone; 5.28 with biotinyl-Leu-oxazolone; 6.53 in the data set on biotinyl-Trp-oxazolone; 3.13 in the data set on biotinyl-Val-oxazolone; 5.26 in the data set on biotinyl-Met-oxazolone; 3.04 in the data set on biotinyl-Ile-oxazolone.
For “AUUAUCCUGGUCAUCGAGUAA [Fam2.1 aminoacylation ribozyme variant]”, the self-aminoacylation in the data set with biotinyl-Phe-oxazolone was 2.69; with biotinyl-Leu-oxazolone, 1.85; in the data set on biotinyl-Trp-oxazolone, 1.08; in the data set on biotinyl-Val-oxazolone it was 1.39; in the data set on biotinyl-Met-oxazolone, 2.03; in the data set on biotinyl-Ile-oxazolone, 1.43.
As for “AUUAUCCUGGUCAUCGCGUGA [Fam2.1 aminoacylation ribozyme variant]”, the self-aminoacylation in the data set with biotinyl-Phe-oxazolone came to 146; in the data set with biotinyl-Leu-oxazolone, 19.9; in the data set on biotinyl-Trp-oxazolone, 19.3; in the data set with biotinyl-Val-oxazolone, 8.29; with biotinyl-Met-oxazolone it was 17.9; in the data set with biotinyl-Ile-oxazolone, 6.96.
Take “AUUAUCCUGGUCAUGGAGUGA [Fam2.1 aminoacylation ribozyme variant]”: the self-aminoacylation in the data set with biotinyl-Phe-oxazolone was found to be 13.6; with biotinyl-Leu-oxazolone, 4.6; in the data set on biotinyl-Trp-oxazolone, 5.21; in the data set on biotinyl-Val-oxazolone, 2.6; in the data set on biotinyl-Met-oxazolone, 4.22; with biotinyl-Ile-oxazolone, 2.67.
Take “AUUCAACCAGGUCAUCGGGUG [Fam2.2 aminoacylation ribozyme variant]”: the self-aminoacylation in the data set on biotinyl-Phe-oxazolone is 58.9; in the data set with biotinyl-Leu-oxazolone, 7.64; with biotinyl-Trp-oxazolone, 6.24; in the data set on biotinyl-Val-oxazolone, 4.22; in the data set on biotinyl-Met-oxazolone, 5.83; in the data set on biotinyl-Ile-oxazolone it was 4.64.
With “AUUCAACGAGGUCAUCGGGUG [Fam2.2 aminoacylation ribozyme variant]”, the self-aminoacylation was determined as 54.8 in the data set on biotinyl-Phe-oxazolone; 9.27 with biotinyl-Leu-oxazolone; 6.07 in the data set on biotinyl-Trp-oxazolone; 5.11 in the data set with biotinyl-Val-oxazolone; 7.46 with biotinyl-Met-oxazolone; 3.97 in the data set with biotinyl-Ile-oxazolone.
